Measurements: the Immune Epitope Database (IEDB)

Key:
[1] = biological target: HLA-B*15:02; assay: IEDB peptide-MHC binding, purified MHC/competitive/fluorescence; filed as Kd, often an IC50 or EC50 that approximates it; ≥ and ≤ were set here for values at or beyond the usual limits of such assays; conditions: source organism: Bacillus licheniformis
[2] = biological target: HLA-A*31:01; assay: IEDB peptide-MHC binding, purified MHC/direct/fluorescence; filed as Kd, often an IC50 or EC50 that approximates it; ≥ and ≤ were set here for values at or beyond the usual limits of such assays; conditions: source organism: Bacillus licheniformis
[3] = biological target: HLA-A*11:01; assay: as above
[4] = biological target: HLA-A*03:01; assay: as above
[5] = biological target: HLA-B*27:05; assay: as above
[6] = biological target: HLA-A*01:01; assay: as above
[7] = biological target: HLA-B*40:01; assay: as above
[8] = biological target: HLA-B*15:01; assay: as above
[9] = biological target: HLA-B*07:02; assay: as above
[10] = biological target: HLA-A*26:01; assay: as above; conditions: source organism: Bacillus licheniformis
[11] = biological target: HLA-A*02:01; assay: as above
[12] = biological target: HLA-A*69:01; assay: as above
[13] = biological target: HLA-B*58:01; assay: as above
[14] = biological target: HLA-B*08:01; assay: as above; conditions: source organism: Bacillus licheniformis
[15] = biological target: HLA-A*31:01; assay: IEDB peptide-MHC binding, purified MHC/competitive/fluorescence; filed as Kd, often an IC50 or EC50 that approximates it; ≥ and ≤ were set here for values at or beyond the usual limits of such assays; conditions: source organism: Human immunodeficiency virus 1
[16] = biological target: HLA-A*11:01; assay: as above; conditions: source organism: Human immunodeficiency virus 1
[17] = biological target: HLA-B*08:02; assay: as above; conditions: source organism: Human immunodeficiency virus 1
[18] = biological target: HLA-A*30:01; assay: as above; conditions: source organism: Human immunodeficiency virus 1
[19] = biological target: HLA-A*03:01; assay: as above; conditions: source organism: Human immunodeficiency virus 1
[20] = biological target: HLA-A*02:06; assay: as above; conditions: source organism: Human immunodeficiency virus 1
[21] = biological target: HLA-A*02:03; assay: as above; conditions: source organism: Human immunodeficiency virus 1
[22] = biological target: HLA-A*26:01; assay: as above; conditions: source organism: Human immunodeficiency virus 1
[23] = biological target: HLA-A*02:01; assay: as above; conditions: source organism: Human immunodeficiency virus 1
[24] = biological target: HLA-A*68:02; assay: as above; conditions: source organism: Human immunodeficiency virus 1
[25] = biological target: HLA-A*26:03; assay: as above; conditions: source organism: Human immunodeficiency virus 1
[26] = biological target: HLA-A*69:01; assay: as above; conditions: source organism: Human immunodeficiency virus 1
[27] = biological target: HLA-B*08:01; assay: as above; conditions: source organism: Human immunodeficiency virus 1
[28] = biological target: HLA-B*51:01; assay: IEDB peptide-MHC binding, purified MHC/direct/fluorescence; filed as Kd, often an IC50 or EC50 that approximates it; ≥ and ≤ were set here for values at or beyond the usual limits of such assays; conditions: source organism: Francisella tularensis subsp. tularensis FSC033
[29] = biological target: HLA-A*30:01; assay: as above; conditions: source organism: Francisella tularensis subsp. tularensis FSC033
[30] = biological target: HLA-A*02:50; assay: as above; conditions: source organism: Francisella tularensis subsp. tularensis FSC033
[31] = biological target: HLA-B*18:01; assay: as above; conditions: source organism: Francisella tularensis subsp. tularensis FSC033
[32] = biological target: HLA-A*29:02; assay: as above; conditions: source organism: Francisella tularensis subsp. tularensis FSC033
[33] = biological target: HLA-B*44:02; assay: as above
[34] = biological target: HLA-B*57:01; assay: as above; conditions: source organism: Francisella tularensis subsp. tularensis FSC033
[35] = biological target: HLA-A*02:50; assay: IEDB peptide-MHC binding, purified MHC/competitive/fluorescence; filed as Kd, often an IC50 or EC50 that approximates it; ≥ and ≤ were set here for values at or beyond the usual limits of such assays; conditions: source organism: Coxiella burnetii RSA 493
[36] = biological target: HLA-A*24:02; assay: IEDB peptide-MHC binding, purified MHC/direct/fluorescence; filed as Kd, often an IC50 or EC50 that approximates it; ≥ and ≤ were set here for values at or beyond the usual limits of such assays; conditions: source organism: Coxiella burnetii
[37] = biological target: HLA-C*08:02; assay: as above; conditions: source organism: Coxiella burnetii RSA 493
[38] = biological target: HLA-A*02:06; assay: as above; conditions: source organism: Coxiella burnetii Q321
[39] = biological target: HLA-A*02:19; assay: as above; conditions: source organism: Coxiella burnetii Q321
[40] = biological target: HLA-A*02:03; assay: as above; conditions: source organism: Coxiella burnetii Q321
[41] = biological target: HLA-A*02:12; assay: as above; conditions: source organism: Coxiella burnetii Q321
[42] = biological target: HLA-A*02:11; assay: as above; conditions: source organism: Coxiella burnetii Q321
[43] = biological target: HLA-C*12:03; assay: as above; conditions: source organism: Coxiella burnetii RSA 493
[44] = source organism: Bacillus licheniformis
[45] = source organism: Francisella tularensis subsp. tularensis FSC033
[46] = source organism: Francisella tularensis subsp. holarctica OSU18
[47] = source organism: Coxiella burnetii

VQIPEKKCF
Kd [1]: ≥ 20 µM | Kd [2]: ≥ 20 µM | Kd [3, 44]: ≥ 20 µM | Kd [4, 44]: ≥ 20 µM | Kd [5, 44]: ≥ 20 µM | Kd [6, 44]: ≥ 20 µM | Kd [7, 44]: ≥ 20 µM | Kd [8, 44]: 0.453 µM | Kd [9, 44]: ≥ 20 µM | Kd [10]: ≥ 20 µM | Kd [11, 44]: ≥ 20 µM | Kd [12, 44]: ≥ 20 µM | Kd [13, 44]: ≥ 20 µM | Kd [14]: ≥ 20 µM

VLYCVHQRV
Kd [15]: 11.9 µM | Kd [16]: 10.7 µM | Kd [17]: ≥ 20 µM | Kd [18]: 1.86 µM | Kd [19]: ≥ 20 µM | Kd [20]: 0.0005 µM | Kd [21]: 0.0047 µM | Kd [22]: ≥ 20 µM | Kd [23]: 0.0098 µM | Kd [24]: 0.223 µM | Kd [25]: ≥ 20 µM | Kd [26]: ≥ 20 µM | Kd [27]: ≥ 20 µM

ETLDVFGPI
Kd [28]: ≥ 20 µM | Kd [29]: ≥ 20 µM | Kd [30]: ≥ 20 µM | Kd [31]: ≥ 20 µM | Kd [32]: ≥ 20 µM | Kd [33, 45]: ≥ 20 µM | Kd [6, 45]: ≥ 20 µM | Kd [7, 45]: ≥ 20 µM | Kd [8, 45]: ≥ 20 µM | Kd [9, 45]: ≥ 20 µM | Kd [11, 46]: ≥ 20 µM | Kd [12, 46]: 0.0004 µM | Kd [34]: ≥ 20 µM | Kd [13, 45]: ≥ 20 µM

YMHGSIHEV
Kd [35]: ≤ 0.0001 µM | Kd [36]: ≥ 20 µM | Kd [37]: ≥ 20 µM | Kd [3, 47]: ≥ 20 µM | Kd [33, 47]: ≥ 20 µM | Kd [4, 47]: ≥ 20 µM | Kd [5, 47]: ≥ 20 µM | Kd [6, 47]: ≥ 20 µM | Kd [38]: 0.002 µM | Kd [7, 47]: ≥ 20 µM | Kd [8, 47]: 0.118 µM | Kd [39]: 0.007 µM | Kd [40]: 0.002 µM | Kd [9, 47]: ≥ 20 µM | Kd [41]: 0.007 µM | Kd [11, 47]: 0.057 µM | Kd [42]: 0.002 µM | Kd [43]: 0.026 µM | Kd [12, 47]: 0.0407 µM | Kd [13, 47]: ≥ 20 µM
